Experimental data from patent publication US6458927B1, “Polypeptide with appetite regulating activity” (Novo Nordisk A/S, priority 1997, dated 2002).

System: Mice
Experiment: Test method for measuring appetite suppression in mice (milk consumption after ICV injection)
Assay type: in vivo
Conditions: for % Feeding Suppression: food deprived, milk consumption over 10 minutes, 30 min after injection, percent reduction relative to control mean
Method: Mice were deprived of their normal feed for two days and given free access to a solution of nutritionally complete infant formula milk (Complan®) for the first day, after which food deprivation was complete for the last day before testing. After one day of food deprivation, mice were injected intra-cerebroventricularly (ICV) in the lateral ventricle with 10 microliters of a solution containing the test substance. Thirty minutes after injection, mice were individually placed in a 15×15×15 cm test box with a stainless steel grid floor and a glass drinking tube which projected into the box. The drinking tube was connected to a reservoir containing the formula milk solution, and the interior of the drinking tube contained an electrode enabling the detection of drinking contacts with the solution by measuring the flow of a weak (unnoticeable) electric current through mice by means of an electronic apparatus connected to the drinking tube electrode and the stainless steel grid floor. Consumption of the milk solution was measured over a 10 minutes period by electronically recording the total amount of contact with the milk solution during the test session. The degree of appetite suppression produced by a given test substance was determined by statistical comparison of the duration of milk consumption by control (vehicle treated) mice with that of mice treated with a test substance. The degree of appetite suppression in a treated group of mice was expressed as percent reduction of consumption relative to the mean of the control group's response.

B1: Ala-Leu-Asp-Ile-Tyr-Ser-Ala-Val-Asp-Asp-Ala-Ser-His-Glu-Lys-Glu-Leu-Ile- Glu-Ala-Leu-Gln-Glu-Val-Leu-Lys-Lys-Leu-Lys-Ser-Lys-Arg-Ile-Pro-Ile-Tyr- … (protein)
chain: ALDIYSAVDDASHEKELIEALQEVLKKLKSKRIPIYEKKYGQVPMCDAGEQCAVRKGARIGKLCDCPRGTSCNSFLLKCL
notes: recombinant rat CART fragment 10-89 from FXa digest of thioredoxin-CART fusion (E. coli)
% Feeding Suppression (ICV dose 1 microgram): 41% | % Feeding Suppression (ICV dose 2 micrograms): 70% | % Feeding Suppression (ICV dose 5 micrograms): 71% | % Feeding Suppression (ICV dose 10 micrograms): 59% | % Feeding Suppression (ICV dose 20 micrograms): 78% | suppression of milk consumption (statistical significance, in words) (intra-cerebroventricular injection in phosphate buffered saline, over the dose range tested for the substance): statistically significant suppression of milk consumption
